Measurements reported in the supplement of paper PMC12855868.

B1: library; numbered along this chain (parent)
chain: MAAAGGARLLRAASAVLGGPAGRWLHHAGSRAGSSGLLRNRGPGGSAEASRSLSVSARARSSSEDKITVHFINRDGETLTTKGKVGDSLLDVVVENNLDIDGFGACEGTLACSTCHLIFEDHIYEKLDAITDEENDMLDLAYGLTDRSRLGCQICLTKSMDNMTVRVPETVADARQSIDVGKTS

Variants of: B1
Assay: scaled log2 fold change in cell abundance, elesclomol vs control (0 = silent mean, 1 = nonsense mean) (scaled log2 ratio); higher = higher viability under elesclomol (loss of FDX1 cuproptosis function)
Conditions: glucose 10 mM
[1] = with ABC1 FDX1 KO, elesclomol 5 nM, 14 days
[2] = with HEK293T FDX1 KO, elesclomol 40 nM, 11 days
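Note: variant abundance is its share of total variant reads in each endpoint sample, from next-generation sequencing of the integrated ORF PCR-amplified out of genomic DNA.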

Variant	scaled log2 fold change [1]	scaled log2 fold change [2]
L156H	1.07	1.03
L156Q	0.697	0.562
L156S	0.388	0.852
L156D	1.12	0.926
L156M	-0.318	-0.383
L156W	1.06	1.36
L156K	1.05	1.71
L156I	-0.0958	-0.948
L156V	-0.38	0.664
L156Y	1.07	0.941
L156T	0.139	0.0718
L156N	0.8	0.347
L156P	0.268	0.446
S159F	-0.798	0.523
S159E	-0.499	-0.34
S159T	-0.475	0.754
S159L	-0.241	0.847
S159D	-1.07	-0.414
S159G	-1.03	-0.767
S159C	0.095	-0.0429

Variant	scaled log2 fold change [1]	scaled log2 fold change [2]
S159K	0.382	-0.162
S159R	-0.282	0.159
S159A	0.168	-0.0471
S159P	-1.13	-0.284
S159V	0.225	0.738
S159W	0.0873	0.215
S159I	-0.459	0.0583
S159Q	-0.52	
S159H	-0.58	0.214
S159N	0.273	-0.128
S159M	-0.149	-0.209
S159Y	-0.0652	-0.463
N162C	-0.275	0.0594
N162D	-0.354	0.0725
N162A	0.23	0.844
N162H	-0.203	0.208
N162F	0.167	-0.244
N162E	0.0612	0.838
N162G	-0.601	
K158L	0.172	-0.122

Variant	scaled log2 fold change [1]	scaled log2 fold change [2]
K158H	0.174	-0.704
K158S	0.23	-0.645
K158W	0.161	-0.562
K158Y	0.0178	-1.33
K158I	-0.0888	-0.515
K158F	0.241	0.189
K158D	0.233	0.95
K158R	0.0874	-0.484
K158Q	-0.363	-0.446
K158N	-0.716	-0.562
K158M	0.185	-0.505
K158C	0.225	0.192
K158E	-0.265	0.159
K158P	0.0465	0.515
K158V	0.0943	-0.343
K158T	-0.0261	0.646
K158A	-0.146	0.138
K158G	-0.426	-0.842
